Measurements: paper PMC12260427
Like-named read-outs stand apart in the source and are kept apart here.

Legend:
alpha-thrombin [1] = biological target: T1, alpha-thrombin (Homo sapiens, UniProt P00734;P00734 328-363;364-622); assay: native MS
alpha-thrombin [2] = biological target: T1, alpha-thrombin; assay: EMSA
alpha-thrombin [3] = biological target: T1, alpha-thrombin; assay: ITC
alpha-thrombin [4] = biological target: T1, alpha-thrombin; assay: ITC; remark: listed apart in the source
alpha-thrombin [5] = biological target: T1, alpha-thrombin; assay: ITC; remark: listed apart in the source

B1: ss(ATTCG)18 (ssDNA)
DNA: ATTCGATTCGATTCGATTCGATTCGATTCGATTCGATTCGATTCGATTCGATTCGATTCGATTCGATTCGATTCGATTCGATTCGATTCG
binding result (alpha-thrombin [1]): no binding

B2: ss(GGAAT)18 (ssDNA)
DNA: GGAATGGAATGGAATGGAATGGAATGGAATGGAATGGAATGGAATGGAATGGAATGGAATGGAATGGAATGGAATGGAATGGAATGGAAT
binding result (alpha-thrombin [2]): no binding

B3: ss(ATTCC)18 (structured_DNA)
DNA: ATTCCATTCCATTCCATTCCATTCCATTCCATTCCATTCCATTCCATTCCATTCCATTCCATTCCATTCCATTCCATTCCATTCCATTCC
Kd (alpha-thrombin [3]): 1460 nM | Kd (alpha-thrombin [4]): 746 nM | Kd (alpha-thrombin [5]): 174 nM
